In US10894036B2, “Use of marizomib for the treatment of central nervous system (CNS) cancers” (Celgene International II Sàrl, priority 2016, dated 2021):

Assay: Phase 1/2 MRZ + BEV and MRZ monotherapy in recurrent G4 MG: adverse events, DLT
Settings: for Ataxia: Treatment Related Grade ≥3 AE, # patients / Confusional State: Treatment Related Grade ≥3 AE, # patients / Delusion: Treatment Related Grade ≥3 AE, # patients / Dyspnea: Treatment Related Grade ≥3 AE, # patients / Embolism: Treatment Related Grade ≥3 AE, # patients / Fall: Treatment Related Grade ≥3 AE, # patients / Fatigue: Treatment Related Grade ≥3 AE, # patients / Hallucination: Treatment Related Grade ≥3 AE, # patients / Headache: Treatment Related Grade ≥3 AE, # patients / Hypertension: Treatment Related Grade ≥3 AE, # patients / Hyponatremia: Treatment Related Grade ≥3 AE, # patients / Insomnia: Treatment Related Grade ≥3 AE, # patients / Intracranial Hemorrhage: Treatment Related Grade ≥3 AE, # patients / Optic Nerve Disorder: Treatment Related Grade ≥3 AE, # patients / Proteinuria: Treatment Related Grade ≥3 AE, # patients: attributed to labelled agent
[1] = MRZ 0.7 mg/m^2 + BEV, Cohort 2, N = 3
[2] = MRZ 0.7 mg/m^2 Cohort 2 (N = 3)
[3] = MRZ 0.8 mg/m^2 + BEV, Cohorts 3 & 4, N = 27
[4] = MRZ 0.8 mg/m^2 + BEV, N = 27, related to the labelled drug
[5] = MRZ 0.8 mg/m^2 Cohorts 3 & 4 (N = 27)

For bevacizumab [reference compound], the “Confusional State, Treatment Related Grade ≥3 AE, patients” value [1] was 0, the “Delusion, Treatment Related Grade ≥3 AE, patients” value [1] was 0 and the “Dyspnea, Treatment Related Grade ≥3 AE, patients” value [1] was 0. For the same substance, the “Embolism, Treatment Related Grade ≥3 AE, patients” value [1] was 0, the “Fall, Treatment Related Grade ≥3 AE, patients” value [1] was 0 and the “Fatigue, Treatment Related Grade ≥3 AE, patients” value [1] was 0. The “Hallucination, Treatment Related Grade ≥3 AE, patients” value [1] was 0, the “Headache, Treatment Related Grade ≥3 AE, patients” value [1] was 0 and the “Hypertension, Treatment Related Grade ≥3 AE, patients” value [1] was 1. For the same substance, the “Hyponatremia, Treatment Related Grade ≥3 AE, patients” value [1] was 0, the “Insomnia, Treatment Related Grade ≥3 AE, patients” value [1] was 0 and the “Intracranial Hemorrhage, Treatment Related Grade ≥3 AE, patients” value [1] was 0. The “Optic Nerve Disorder, Treatment Related Grade ≥3 AE, patients” value [1] was 0, the “Proteinuria, Treatment Related Grade ≥3 AE, patients” value [1] was 1 and the “Ataxia, Treatment Related Grade ≥3 AE, patients” value (MRZ 0.7 mg/m^2 + BEV, Cohort 2, N = 3, related to the labelled drug) was 0. For the same substance, the “Ataxia: Treatment Related Grade ≥3 AE, # patients” value [2] was 0, the “Confusional State: Treatment Related Grade ≥3 AE, # patients” value [2] was 0 and the “Delusion: Treatment Related Grade ≥3 AE, # patients” value [2] was 0. The “Dyspnea: Treatment Related Grade ≥3 AE, # patients” value [2] was 0, the “Embolism: Treatment Related Grade ≥3 AE, # patients” value [2] was 0 and the “Fall: Treatment Related Grade ≥3 AE, # patients” value [2] was 0. The “Fatigue: Treatment Related Grade ≥3 AE, # patients” value [2] was 0, the “Hallucination: Treatment Related Grade ≥3 AE, # patients” value [2] was 0 and the “Headache: Treatment Related Grade ≥3 AE, # patients” value [2] was 0. The “Hypertension: Treatment Related Grade ≥3 AE, # patients” value [2] was 1, the “Hyponatremia: Treatment Related Grade ≥3 AE, # patients” value [2] was 0 and the “Insomnia: Treatment Related Grade ≥3 AE, # patients” value [2] was 0. For the same substance, the “Intracranial Hemorrhage: Treatment Related Grade ≥3 AE, # patients” value [2] was 0, the “Optic Nerve Disorder: Treatment Related Grade ≥3 AE, # patients” value [2] was 0 and the “Proteinuria: Treatment Related Grade ≥3 AE, # patients” value [2] was 1. The “Fatigue, treatment-related AE, patients” value (MRZ 0.8 mg/m^2 + BEV Cohorts 3 & 4, N = 27, related to the labelled drug (MRZ + BEV = related to both)) was 18 (66.7%), the “Confusional State, Treatment Related Grade ≥3 AE, patients” value [3] was 0 and the “Delusion, Treatment Related Grade ≥3 AE, patients” value [3] was 0. The “Dyspnea, Treatment Related Grade ≥3 AE, patients” value [3] was 1, the “Embolism, Treatment Related Grade ≥3 AE, patients” value [3] was 1 and the “Fall, Treatment Related Grade ≥3 AE, patients” value [3] was 0. For the same substance, the “Fatigue, Treatment Related Grade ≥3 AE, patients” value [3] was 1, the “Hallucination, Treatment Related Grade ≥3 AE, patients” value [3] was 0 and the “Headache, Treatment Related Grade ≥3 AE, patients” value [3] was 1. The “Hypertension, Treatment Related Grade ≥3 AE, patients” value [3] was 5, the “Hyponatremia, Treatment Related Grade ≥3 AE, patients” value [3] was 0 and the “Insomnia, Treatment Related Grade ≥3 AE, patients” value [3] was 0. The “Intracranial Hemorrhage, Treatment Related Grade ≥3 AE, patients” value [3] was 1, the “Optic Nerve Disorder, Treatment Related Grade ≥3 AE, patients” value [3] was 1 and the “Proteinuria, Treatment Related Grade ≥3 AE, patients” value [3] was 0. For the same substance, the “Ataxia, Treatment Related Grade ≥3 AE, patients” value (MRZ 0.8 mg/m^2 + BEV, Cohorts 3 & 4, N = 27, related to the labelled drug) was 0, the “Anaemia, treatment-related AE, patients” value [4] was 0 (0.0%) and the “Ataxia, treatment-related AE, patients” value [4] was 0 (0.0%). The “Confusional state, treatment-related AE, patients” value [4] was 1 (3.7%), the “Constipation, treatment-related AE, patients” value [4] was 1 (3.7%) and the “Diarrhoea, treatment-related AE, patients” value [4] was 1 (3.7%). For the same substance, the “Dizziness, treatment-related AE, patients” value [4] was 1 (3.7%), the “Dysphonia, treatment-related AE, patients” value [4] was 10 (37.0%) and the “Epistaxis, treatment-related AE, patients” value [4] was 7 (25.9%). The “Fall, treatment-related AE, patients” value [4] was 0 (0.0%), the “Hallucination, treatment-related AE, patients” value [4] was 0 (0.0%) and the “Headache, treatment-related AE, patients” value [4] was 6 (22.2%). For the same substance, the “Infusion site pain, treatment-related AE, patients” value [4] was 1 (3.7%), the “Muscular weakness, treatment-related AE, patients” value [4] was 1 (3.7%) and the “Platelet count decreased, treatment-related AE, patients” value [4] was 3 (11.1%). The “Upper-airway cough syndrome, treatment-related AE, patients” value [4] was 5 (18.5%), the “Ataxia: Treatment Related Grade ≥3 AE, # patients” value [5] was 0 and the “Confusional State: Treatment Related Grade ≥3 AE, # patients” value [5] was 0. The “Delusion: Treatment Related Grade ≥3 AE, # patients” value [5] was 0, the “Dyspnea: Treatment Related Grade ≥3 AE, # patients” value [5] was 1 and the “Embolism: Treatment Related Grade ≥3 AE, # patients” value [5] was 1. The “Fall: Treatment Related Grade ≥3 AE, # patients” value [5] was 0, the “Fatigue: Treatment Related Grade ≥3 AE, # patients” value [5] was 1 and the “Hallucination: Treatment Related Grade ≥3 AE, # patients” value [5] was 0. The “Headache: Treatment Related Grade ≥3 AE, # patients” value [5] was 1, the “Hypertension: Treatment Related Grade ≥3 AE, # patients” value [5] was 5 and the “Hyponatremia: Treatment Related Grade ≥3 AE, # patients” value [5] was 0. The “Insomnia: Treatment Related Grade ≥3 AE, # patients” value [5] was 0, the “Intracranial Hemorrhage: Treatment Related Grade ≥3 AE, # patients” value [5] was 1 and the “Optic Nerve Disorder: Treatment Related Grade ≥3 AE, # patients” value [5] was 1. For the same substance, the “Proteinuria: Treatment Related Grade ≥3 AE, # patients” value [5] was 0, the “Anaemia: # pts, related to BEV” value (MRZ+BEV, 12 Sep. 2016) was 0 and the “Anxiety: # pts, related to BEV” value (MRZ+BEV, 12 Sep. 2016) was 0. The “Aphasia: # pts, related to BEV” value (MRZ+BEV, 12 Sep. 2016) was 0, the “Appendicitis Perforated: # pts, related to BEV” value (MRZ+BEV, 12 Sep. 2016) was 0 and the “Asthenia: # pts, related to BEV” value (MRZ+BEV, 12 Sep. 2016) was 0. For the same substance, the “Ataxia: # pts, related to BEV” value (MRZ+BEV, 12 Sep. 2016) was 0, the “Confusional State: # pts, related to BEV” value (MRZ+BEV, 12 Sep. 2016) was 0 and the “Constipation: # pts, related to BEV” value (MRZ+BEV, 12 Sep. 2016) was 0. For the same substance, the “Convulsion: # pts, related to BEV” value (MRZ+BEV, 12 Sep. 2016) was 0, the “Delusion: # pts, related to BEV” value (MRZ+BEV, 12 Sep. 2016) was 0 and the “Depressed Level of Consciousness: # pts, related to BEV” value (MRZ+BEV, 12 Sep. 2016) was 0. For the same substance, the “Diarrhoea: # pts, related to BEV” value (MRZ+BEV, 12 Sep. 2016) was 0, the “Dizziness: # pts, related to BEV” value (MRZ+BEV, 12 Sep. 2016) was 0 and the “Dysarthria: # pts, related to BEV” value (MRZ+BEV, 12 Sep. 2016) was 0. The “Dysphagia: # pts, related to BEV” value (MRZ+BEV, 12 Sep. 2016) was 0, the “Dysphonia: # pts, related to BEV” value (MRZ+BEV, 12 Sep. 2016) was 10 and the “Dyspnoea: # pts, related to BEV” value (MRZ+BEV, 12 Sep. 2016) was 0.
